Data reported in US20220265772A1, “USES OF DAN FAMILY BMP ANTAGONISTS FOR INHIBITING OCULAR NEOVASCULARIZATION AND TREATING OCULAR CONDITIONS” (9636137 Canada Inc., priority 2019, published 2022).

Assays:
HUVECs = assay: Scratch (wound healing) assay, endothelial cell migration; format: cell-based, human
Experimental: Confluent HUVEC monolayers were grown in 6-well plates. Cells were starved 18 hours in EBM-2 medium with 1% FBS. A horizontal wound was created using a sterile 200 μl pipette tip. Next, the cells were washed with EBM2 at 37° C. and incubated in EBM-2 supplemented with VEGF-A (25 ng/ml) or DAND5 (60 ng/ml) at 37° C. for 16 hours. Pictures of scratch wounds were taken just before stimulation (time 0) and after 16 h. Migration % was calculated using ImageJ™ software.
To evaluate the cellular mechanisms underlying the inhibitory effects of DAND5 on endothelial cells sprouting, we assessed the effects of DAND5 on endothelial cell migration and proliferation. Endothelial cell migration plays an essential role in neovascularization, as endothelial tip cells will need to migrate in response to VEGF, and constitutes one of the first steps of the angiogenic response. To address the effects of DAND5 on EC migration, HUVECs were subjected to a wound healing assay. Briefly, a scratch was performed on a confluent monolayer of HUVECs, and wound closure was evaluated at the time of the scratch and again after […].

Wnt signaling = assay: Canonical Wnt signaling in HUVECs (immunoblotting, β-catenin immunofluorescence); format: cell-based, human
Experimental: FIG. 12 is a panel with a schematic, pictures showing that Dand5 reduces canonical Wnt signaling in HUVECs. HUVECs were plated to confluence and received a 2 h scratch in the presence or absence of Dand5 ([…]) or IWR1 (3 μM). β-catenin (green) localization was examined by immunofluorescence with phalloidin and DAPI (nuclei) to identify the cell boundaries and nucleus. […] Scale bars, […]).
Cells were washed with cold PBS and extracted in Laemmli's buffer, followed by sonication. Samples were run on SDS-PAGE gels and transferred onto nitrocellulose membranes. Membranes were blocked with 5% Bovine Serum Albumin (BSA) and probed with primary antibodies overnight at 4° C.: beta-Catenin (Cell Signaling Technology), phospho-beta-catenin (Cell Signaling Technology), Axin2 (Cell Signaling Technology), beta-Actin (Santa Cruz Technologies). HRP-conjugated secondary antibodies (Vector Laboratories) were used to detect primary antibodies.
We next evaluated the molecular mechanisms underlying the effects of DAND5 on endothelial cells. […] Wnt signaling regulates fundamental aspects of vascular development, including cell fate specification, proliferation and survival. […] HUVECs were treated for up to 24 hours with DAND5 or IWR-1, an inhibitor of Wnt canonical signaling. Protein extracts were harvested and subjected to immunoblotting against downstream effectors of Wnt signaling. […] The levels of β-catenin at different subcellular localizations are regulated by a variety of processes including site-specific phosphorylation of β-catenin. In the absence of an active Wnt signaling, β-catenin localization at cellular junctions is reduced and cytoplasmic β-catenin associates with the destruction complex (6).

[1] = tested on: retinal vessels and photoreceptors; format: in vivo, mouse
From the text: FIG. 4 is a panel with a schematic, images and bar graphs showing that chronic intravitreal injections of Dand5 inhibits developmental angiogenesis but is not detrimental to photoreceptor survival. FIG. 4A: Schematic representation of experimental set-up (B-E). Neonatal pups received intravitreal injections of either PBS, Dand5, Flt1-Fc on P1, P7 and P14. Retinas were harvested on P28. FIG. 4B: Isolectin B4 staining of flatmount retinas (P28) described in FIG. 3A. FIG. 4C: Quantification of branch points and vessel length in retinas described in FIG. 3B (n=6 mice/group; *p<0.05, **p<0.01). FIG. 4D: Immunofluorescent images of sectioned retinas described in FIG. 3A stained with antibodies against s-opsin and rhodopsin and DAPI (nuclei). FIG. 4E: Quantification of the number of nuclei present in the outer nuclear layer of retinas treated as described in (4A) (n=4, ns). Patients affected by ocular neovascular diseases such as retinopathy of prematurity (ROP) and wet AMD are typically treated with VEGF inhibitors to control pathological angiogenesis. […] Particularly, studies have shown that long-term treatment with VEGF inhibitors in mice leads to increased photoreceptor apoptosis and thinning of the neural retina (4). We therefore addressed the long-term effects of DAND5 on photoreceptors and the neural retina. […]

[2] = tested on: human pluripotent stem cells / stem cell-derived human cones; assay: Cone photoreceptor differentiation, maintenance and survival (earlier study and unpublished work); format: cell-based; conditions: in vitro, unpublished work
From the text: Inactivation of DAND5 in mice leads to multiple laterality and cardiovascular defects and a significant proportion of animals die perinatally. […] However, prior to the present invention, it was unknown that DAND5, or any of the six other members of the DAN family of BMP antagonists, could play a role in inhibiting and preventing ocular neovascularization and pathological angiogenesis.

[3] = HUVECs treated for up to 24 hours, immunoblotting

B1: DAND5: human recombinant DAND5/COCO biologically active fragment produced in E. coli, predicted 18.2 kDa monomer, R&D systems 3047-CC-050 (protein)
chain: MRPEPQSPRPQSWAAANQTWALGPGALPPLVPASALGSWKAFLGLQKARQLGMGRLQRGQDEVAAVTLPLNPQEVIQGMCKAVPFVQVFSRPGCSAIRLRNHLCFGHCSSLYIPGSDPTPLVLCNSCMPARKRWAPVVLWCLTGSSASRRRVKISTMLIEGCHCSPKA
polarization of the Golgi apparatus towards the leading edge (HUVECs; cells at the wound edge): did not significantly affect polarization of the Golgi apparatus towards the leading edge | wound closure (VEGF-induced cell migration) (HUVECs; confluent HUVEC monolayer, DAND5 60 ng/ml, evaluated after 18 hours): significantly delayed wound closure compared to control treatment | levels of Axin2 (Wnt signaling; [3]): increased levels of Axin2 | levels of phosphorylated beta-catenin (Wnt signaling; [3]): increased levels of phosphorylated beta-catenin | levels of total beta-catenin (Wnt signaling; [3]): decreased levels of total beta-catenin | cytoplasmic β-catenin (Wnt signaling; confluent HUVECs, 2 h scratch, Dand5 60n/mL or IWR1 3 μM): increased cytoplasmic β-catenin | β-catenin subcellular localization (Wnt signaling; staining of HUVECs cultured in the presence of DAND5): decreased membrane localization and increased internalization of β-catenin in the cytoplasm | photoreceptor apoptosis (cleaved-caspase 3 staining) ([1]; mouse, in vivo): did not reveal significant apoptosis | retinal blood vessel formation / density of retinal vessels ([1]; repeated injections from P1 for 4 weeks): striking reduction in blood vessel formation | survival of stem cell-derived human cones [2]: displays pro-survival activities
